In PMC4793259 (Journal of Extracellular Vesicles, 2016):

Molecular target: epidermal growth factor receptor (Homo sapiens (A431, HeLa cells), UniProt P00533)
Experiment: flow cytometry on cells

B1: GPI-anchored HA-tagged R2 nanobody (DAF-R2) displayed on Neuro2A extracellular vesicles (VHH)
VHH: QVQLQESGGGLVQAGGSLRLSCAASGRAASGHGHYGMGWFRQVPGKEREFVAAIRWSGKETWYKDSVKGRFTISRDNAKTTVYLQMNSLKGEDTAVYYCAARPVRVADISLPVGFDYWGQGTQVTVSS
B1: no binding (tested: 5 µg/mL).
